For 167 variants, self-cleavage results are on record in the RNAGym collection of RNA variant scans (doi:10.7554/elife.80360).

The chains are these.
B1: CPEB3 Ribozyme (parent)
chain: GGGGGCCACAGCAGAAGCGUUCACGUCGCGGCCCCUGUCAGAUUCUGGUGAAUCUGCGAAUUCUGCUGU

The variants in the series derive from B1. Description: self-cleavage, relative activity (ratio to wild type); higher = more cleavage; co-transcriptional.
Turning to G48U C63A, the self-cleavage was found to be 0.956. The result for G48U C63U reads 1.03; that for G48U C63G, 0.878. Next, G48A C63G: 0.898. Turning to G48A C63A, the self-cleavage is 0.932.

Regarding G48A C63U, the self-cleavage amounted to 0.959. The result for G48C A52G reads 1.04; that for G48C A52U, 0.971; that for G48C A52C, 0.994. As to G47C C66A, the self-cleavage was 0.897.

As to G47C C66G, the self-cleavage was determined as 0.91. Next, G48A C57G: 0.31; G48A C57U: 0.374. Next, G48C C57G: 0.285.

As to G48C C57A, the self-cleavage turned out to be 0.309. The result for G47C G58A reads 0.939; that for G47C G58U, 0.997. The result for G47C G58C reads 0.977. The result for G47A C57A reads 0.347.

G47A C57U: the self-cleavage amounted to 0.321. The result for G48A G56A reads 0.992; that for G48A G56C, 0.949; that for U49A A60U, 0.582.

Turning to U49A A60G, the self-cleavage was 0.915.

U49A A60C: the self-cleavage was 0.394.

As for G48A U67C, the self-cleavage stood at 0.958. The result for G48A U67G reads 1.06. The result for G48A U67A reads 1.01; that for G47U G56A, 0.966; that for G47U G56C, 0.885. For G47C U62A, the self-cleavage was determined as 1. The result for G47C U62G reads 0.901. Next, G47A A52G: 0.969; G47U A59G: 1. Consider G47U A59C, for which the self-cleavage turned out to be 0.832. For the variant G47C G48A, the self-cleavage turned out to be 0.988. Next, U46G G50U: 0.962.

On to U46G G50A, for which the self-cleavage is 0.981. Turning to U49A C57A, the self-cleavage was determined as 0.273.

Consider U49A C57G, for which the self-cleavage worked out at 0.346. Next, G47U C57G: 0.311. Next, G47U C57U: 0.378; G47U C57A: 0.396; G47C U67C: 0.993.

On to G47C U67G, for which the self-cleavage was 1.06. For the variant G48C G58A, the self-cleavage amounted to 0.917. Next, G48C G58C: 0.974; G47U U64G: 0.913; G47A G68U: 1.01.

As for G47A G68A, the self-cleavage stood at 1.01. Next, G48A G50C: 0.974. Regarding G48A G50U, the self-cleavage stood at 0.988. The result for G48A G50A reads 0.985; that for U46G C54G, 0.907; that for G48U C57A, 0.316.

Take G47A U49G: the self-cleavage turned out to be 0.994. Next, G47A G58A: 0.96. Next, G47A G58C: 0.951. In the case of G48C U61G, the self-cleavage is 0.907. The result for G48C U61C reads 0.866; that for G47C C63U, 1.01. Turning to U46G G68C, the self-cleavage was found to be 1.04. The result for U46G G68U reads 0.971; that for G47A A59U, 0.872. Next, G47U A52U: 0.973; G48C C66G: 0.934; G48C C66A: 0.91. The result for G48U U62C reads 0.929; that for G47C A59G, 0.958; that for G47C A59U, 0.863.

Turning to G47C A59C, the self-cleavage was found to be 0.837. Next, G48C U55A: 1; G47C C57U: 0.344; G47C C57A: 0.32.

As for G48U U64C, the self-cleavage is 0.876. In the case of G48U U64G, the self-cleavage was determined as 0.955. Turning to G48U U64A, the self-cleavage came out at 0.96. The result for U49A C66G reads 0.96; that for U49A C66A, 0.911. Next, U46G G65C: 0.681; U46G U64A: 0.916.

With U46G U64G, the self-cleavage turned out to be 0.885. The result for U46G U64C reads 0.927; that for U49A G50A, 0.995; that for U49A A52G, 0.979. The result for G47U U62C reads 0.912. Next, G47U U62G: 0.903; G47U U55G: 0.937.

Regarding G47U U55A, the self-cleavage came out at 0.961.

Turning to U46G U62C, the self-cleavage is 0.993.

For the variant U46G U62A, the self-cleavage was found to be 0.948.

Consider U46G U62G, for which the self-cleavage was found to be 0.877. Next, U46G U55G: 0.83; U46G U55C: 0.936. Regarding U46G U55A, the self-cleavage came to 0.899. As for G48C U62G, the self-cleavage is 0.913. As for U46G U49C, the self-cleavage was 1.04. Turning to U46G U49A, the self-cleavage amounted to 0.972. With G48A U55G, the self-cleavage came to 0.993. As for G48A U55C, the self-cleavage amounted to 0.949.

As to G47C U49G, the self-cleavage was 1.

For G47C U49C, the self-cleavage was determined as 0.981. Next, G48U A51C: 0.978; G48U A51U: 1; G48U A51G: 0.959.

In the case of G48A A60U, the self-cleavage came to 0.516. Next, G48A A60C: 0.434; G47A A51G: 1.02; G47A A51U: 0.953.

Turning to G48U U69C, the self-cleavage amounted to 1.04. The result for G48U U69A reads 1.01; that for G48U U69G, 1.05; that for U49A A59U, 0.85. Next, U49A A59C: 0.798; U49A A59G: 0.995; G48C G50U: 1.01. Take G48C G50A: the self-cleavage turned out to be 1.01. Next, G48C G50C: 0.944. Next, G47A U69A: 1.03. Next, G47A U69G: 1.05; G48U U49C: 0.981. G48U U49A: the self-cleavage worked out at 1.02. Next, G48U U49G: 1.01; U46G C63U: 1.03; U46G C63A: 0.869. The result for G48A U61A reads 0.957; that for G48A U61G, 0.919; that for G48A U61C, 0.852. Next, G48A G58A: 0.961. Take G48U G58U: the self-cleavage turned out to be 0.999. The result for G48U G58A reads 0.963.

Turning to G47A G65C, the self-cleavage amounted to 0.79. Next, G47A G65U: 0.858; U46G C66A: 0.786. Next, U46G C66U: 0.986; U46G C66G: 0.956.

For the variant U49A C63G, the self-cleavage worked out at 0.878. Consider U49A C63A, for which the self-cleavage was 0.943.

On to G48A A51U, for which the self-cleavage was found to be 0.989.

Consider G48A A51C, for which the self-cleavage amounted to 1.

Turning to G48A U69C, the self-cleavage is 1.06. For G48A U69A, the self-cleavage was 1.02. As to G48C A60C, the self-cleavage is 0.239.

Consider G48C A60U, for which the self-cleavage was 0.552. Next, G48A U64A: 0.946; G48A U64G: 0.902; G48A U64C: 1. Next, G47U A51C: 0.997. The result for G47U A51U reads 1.01. With G47A G48A, the self-cleavage is 1.03.

For the variant G47A G48C, the self-cleavage was 1.03. Next, U46G G56C: 0.65; U46G G56U: 0.959. The result for G48A C54G reads 1.02; that for G48A C54U, 1.01; that for G48A C54A, 0.998. Consider G47C G50U, for which the self-cleavage came out at 0.998. On to G47C G50C, for which the self-cleavage came out at 1.02. As for G48C C54U, the self-cleavage was found to be 1.04. The result for G48C G68A reads 0.971. As for G47U G58U, the self-cleavage stood at 0.994.

Regarding G47U G58C, the self-cleavage came to 0.963. Next, G47U G58A: 0.946.

G47U C54U: the self-cleavage came to 1.05. Next, G47U C54A: 0.987; G47A U62A: 0.976. With G47A U62C, the self-cleavage worked out at 0.933.
